Consider 94 variants from the supplement of paper PMC10567573.

B1: GNB5 (parent)
chain: DINSVRYYPSGDAFASGSDDATCR
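Note: lentivirally expressed fusions sorted by FACS into six bins by GFP to DsRed ratio, PSI derived from sequencing read proportions per bin multiplied by bin number.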

The variants in the data set derive from B1. The experiment in a line: protein stability index of a GFP-peptide fusion (GPS, HEK-293T) (PSI 1-6); higher = more stable. As to conditions: c terminus: a fixed tail appended.
For DIQSVRYYPSGDAFASGSDDATCR, the protein stability index turned out to be 4.31.

Consider DIGSVRYYPSGDAFASGSDDATCR, for which the protein stability index amounted to 4.53.

Regarding DIRSVRYYPSGDAFASGSDDATCR, the protein stability index turned out to be 4.55.

Turning to DIHSVRYYPSGDAFASGSDDATCR, the protein stability index came out at 4.43.

In the case of DIPSVRYYPSGDAFASGSDDATCR, the protein stability index was 4.64.

On to DIKSVRYYPSGDAFASGSDDATCR, for which the protein stability index came out at 4.04.

Consider DIWSVRYYPSGDAFASGSDDATCR, for which the protein stability index came out at 3.74.

Consider DIYSVRYYPSGDAFASGSDDATCR, for which the protein stability index worked out at 3.68.

As for DILSVRYYPSGDAFASGSDDATCR, the protein stability index came out at 3.35.

DITSVRYYPSGDAFASGSDDATCR: the protein stability index was found to be 3.77.

Take DIVSVRYYPSGDAFASGSDDATCR: the protein stability index came out at 3.56.

On to DICSVRYYPSGDAFASGSDDATCR, for which the protein stability index turned out to be 3.87.

With DIFSVRYYPSGDAFASGSDDATCR, the protein stability index was 3.76.

For DIISVRYYPSGDAFASGSDDATCR, the protein stability index was found to be 3.57.

Regarding DISSVRYYPSGDAFASGSDDATCR, the protein stability index was determined as 4.07.

DIESVRYYPSGDAFASGSDDATCR: the protein stability index amounted to 4.52.

Take DIASVRYYPSGDAFASGSDDATCR: the protein stability index was found to be 4.66.

Turning to DIMSVRYYPSGDAFASGSDDATCR, the protein stability index amounted to 3.42.

In the case of DIDSVRYYPSGDAFASGSDDATCR, the protein stability index is 5.08.

In the case of DINSCRYYPSGDAFASGSDDATCR, the protein stability index came out at 3.81.

As to DINSNRYYPSGDAFASGSDDATCR, the protein stability index came out at 3.46.

As for DINSHRYYPSGDAFASGSDDATCR, the protein stability index was 3.91.

In the case of DINSDRYYPSGDAFASGSDDATCR, the protein stability index turned out to be 4.41.

With DINSSRYYPSGDAFASGSDDATCR, the protein stability index is 4.26.

In the case of DINSYRYYPSGDAFASGSDDATCR, the protein stability index came out at 3.6.

As to DINSERYYPSGDAFASGSDDATCR, the protein stability index was 4.61.

DINSQRYYPSGDAFASGSDDATCR: the protein stability index came to 3.85.

Regarding DINSWRYYPSGDAFASGSDDATCR, the protein stability index is 3.88.

DINSRRYYPSGDAFASGSDDATCR: the protein stability index is 3.73.

As to DINSLRYYPSGDAFASGSDDATCR, the protein stability index came out at 3.49.

Take DINSARYYPSGDAFASGSDDATCR: the protein stability index came out at 4.38.

Consider DINSKRYYPSGDAFASGSDDATCR, for which the protein stability index came out at 3.91.

Take DINSFRYYPSGDAFASGSDDATCR: the protein stability index came out at 3.74.

For DINSIRYYPSGDAFASGSDDATCR, the protein stability index was 4.19.

As to DINSTRYYPSGDAFASGSDDATCR, the protein stability index turned out to be 4.28.

For the variant DINSGRYYPSGDAFASGSDDATCR, the protein stability index came to 3.77.

Take DINSMRYYPSGDAFASGSDDATCR: the protein stability index was determined as 3.92.

On to DINSPRYYPSGDAFASGSDDATCR, for which the protein stability index was 4.51.

In the case of DINKVRYYPSGDAFASGSDDATCR, the protein stability index was 4.08.

For the variant DINGVRYYPSGDAFASGSDDATCR, the protein stability index was 3.6.

As to DINCVRYYPSGDAFASGSDDATCR, the protein stability index came out at 3.44.

As to DINYVRYYPSGDAFASGSDDATCR, the protein stability index is 3.75.

In the case of DINLVRYYPSGDAFASGSDDATCR, the protein stability index is 3.42.

With DINIVRYYPSGDAFASGSDDATCR, the protein stability index came out at 3.55.

DINRVRYYPSGDAFASGSDDATCR: the protein stability index turned out to be 3.81.

With DINVVRYYPSGDAFASGSDDATCR, the protein stability index turned out to be 2.55.

For DINEVRYYPSGDAFASGSDDATCR, the protein stability index amounted to 4.29.

As for DINMVRYYPSGDAFASGSDDATCR, the protein stability index was found to be 4.21.

As for DINNVRYYPSGDAFASGSDDATCR, the protein stability index is 3.55.

Regarding DINTVRYYPSGDAFASGSDDATCR, the protein stability index stood at 4.23.

On to DINAVRYYPSGDAFASGSDDATCR, for which the protein stability index was 3.95.

As to DINWVRYYPSGDAFASGSDDATCR, the protein stability index is 3.22.

On to DINFVRYYPSGDAFASGSDDATCR, for which the protein stability index is 3.48.

As for DINHVRYYPSGDAFASGSDDATCR, the protein stability index is 4.07.

For the variant DINDVRYYPSGDAFASGSDDATCR, the protein stability index was found to be 4.53.

As to DINQVRYYPSGDAFASGSDDATCR, the protein stability index worked out at 3.83.

As to DINPVRYYPSGDAFASGSDDATCR, the protein stability index amounted to 4.32.

Consider KINSVRYYPSGDAFASGSDDATCR, for which the protein stability index came out at 3.85.

As to RINSVRYYPSGDAFASGSDDATCR, the protein stability index came out at 4.04.

For the variant WINSVRYYPSGDAFASGSDDATCR, the protein stability index is 2.68.

For the variant IINSVRYYPSGDAFASGSDDATCR, the protein stability index came to 3.48.

As to PINSVRYYPSGDAFASGSDDATCR, the protein stability index was found to be 3.33.

As for CINSVRYYPSGDAFASGSDDATCR, the protein stability index was 3.44.

Consider LINSVRYYPSGDAFASGSDDATCR, for which the protein stability index was 3.73.

For AINSVRYYPSGDAFASGSDDATCR, the protein stability index was determined as 4.18.

On to TINSVRYYPSGDAFASGSDDATCR, for which the protein stability index was determined as 3.95.

Regarding MINSVRYYPSGDAFASGSDDATCR, the protein stability index was 3.81.

In the case of FINSVRYYPSGDAFASGSDDATCR, the protein stability index amounted to 2.54.

On to GINSVRYYPSGDAFASGSDDATCR, for which the protein stability index is 4.36.

Consider YINSVRYYPSGDAFASGSDDATCR, for which the protein stability index was found to be 2.5.

For the variant NINSVRYYPSGDAFASGSDDATCR, the protein stability index is 4.37.

Regarding EINSVRYYPSGDAFASGSDDATCR, the protein stability index was determined as 4.1.

For HINSVRYYPSGDAFASGSDDATCR, the protein stability index stood at 3.48.

On to VINSVRYYPSGDAFASGSDDATCR, for which the protein stability index was 3.58.

For QINSVRYYPSGDAFASGSDDATCR, the protein stability index was found to be 4.23.

In the case of SINSVRYYPSGDAFASGSDDATCR, the protein stability index is 4.74.

For DINSVRYDPSGDAFASGSDDATCR, the protein stability index stood at 4.87.

As for DINSVRYCPSGDAFASGSDDATCR, the protein stability index worked out at 4.43.

With DINSVRYAPSGDAFASGSDDATCR, the protein stability index was found to be 4.49.

Consider DINSVRYEPSGDAFASGSDDATCR, for which the protein stability index worked out at 4.8.

On to DINSVRGYPSGDAFASGSDDATCR, for which the protein stability index amounted to 4.39.

As to DINSVREYPSGDAFASGSDDATCR, the protein stability index worked out at 5.19.

With DINSVRTYPSGDAFASGSDDATCR, the protein stability index is 4.64.

Take DINSVRIYPSGDAFASGSDDATCR: the protein stability index is 3.76.

Take DINSVRCYPSGDAFASGSDDATCR: the protein stability index was determined as 3.87.

DINSVRPYPSGDAFASGSDDATCR: the protein stability index was 4.46.

Consider DINSVRMYPSGDAFASGSDDATCR, for which the protein stability index stood at 4.12.

DINSVRKYPSGDAFASGSDDATCR: the protein stability index worked out at 4.35.

DINSVRSYPSGDAFASGSDDATCR: the protein stability index came out at 4.69.

For DINSVRWYPSGDAFASGSDDATCR, the protein stability index was 3.11.

With DINSVRAYPSGDAFASGSDDATCR, the protein stability index was 4.5.

DINSVRNYPSGDAFASGSDDATCR: the protein stability index is 4.26.

On to DINSVRLYPSGDAFASGSDDATCR, for which the protein stability index was 3.61.

Turning to DINSVRFYPSGDAFASGSDDATCR, the protein stability index is 3.87.
